{"source": "paper PMC7854179", "about": "(Molecules and Cells, 2021)", "binders": {"B1": {"name": "HPV11 E7 CR3 (residues 45-98) (domain or fragment)", "chain": "AQPLTQHYQILTCCCGCDSNVRLVVECTDGDIRQLQDLLLGTLNIVCPICAPKP"}, "B2": {"name": "HPV18 E7 conserved region 3 (residues 54-105), CR3_(18E7) (domain or fragment)", "chain": "AEPQRHTMLCMCCKCEARIKLVVESSADDLRAFQQLFLNTLSFVCPWCASQQ"}, "B3": {"name": "human PTPN21 PTP domain (residues 873-1174), PTP_(PTPN21) (domain or fragment)", "chain": "EVATRATNDERCKILEQRLEQGMVFTEYERILKKRLVDGECSTARLPENAERNRFQDVLPYDDVRVELVPTKENNTGYINASHIKVSVSGIEWDYIATQGPLQNTCQDFWQMVWEQGIAIIAMVTAEEEGGREKSFRYWPRLGSRHNTVTYGRFKITTRFRTDSGCYATTGLKMKHLLTGQERTVWHLQYTDWPEHGCPEDLKGFLSYLEEIQSVRRHTNSTSDPQSPNPPLLVHCSAGVGRTGVVILSEIMIACLEHNEVLDIPRVLDMLRQQRMMLVQTLCQYTFVYRVLIQFLKSSRLI"}, "B4": {"name": "HPV16 E7 CR3 (residues 45-98) (domain or fragment)", "chain": "AEPDRAHYNIVTFCCKCDSTLRLCVQSTHVDIRTLEDLLMGTLGIVCPICSQKP"}, "B5": {"name": "HPV1a E7 CR3 (residues 39-93) (domain or fragment)", "chain": "LVSPQQPYAVVASCAYCEKLVRLTVLADHSAIRQLEELLLRSLNIVCPLCTLQRQ"}}, "key": {"[1]": {"target": "the molecule itself", "assay": "SEC-MALS"}, "[2]": {"target": "T1, human PTPN14 PTP domain (residues 886-1187), PTP_(PTPN14) (human, UniProt Q15678 886-1187)", "T1 sequence": "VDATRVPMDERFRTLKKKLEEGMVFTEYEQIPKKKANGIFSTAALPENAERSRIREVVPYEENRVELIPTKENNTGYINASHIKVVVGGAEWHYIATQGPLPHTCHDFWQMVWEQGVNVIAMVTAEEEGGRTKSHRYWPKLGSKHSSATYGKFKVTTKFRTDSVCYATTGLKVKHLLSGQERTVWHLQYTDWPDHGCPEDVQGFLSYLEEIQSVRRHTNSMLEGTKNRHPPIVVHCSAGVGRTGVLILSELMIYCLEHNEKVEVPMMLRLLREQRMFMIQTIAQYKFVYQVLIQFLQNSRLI", "assay": "SAXS"}, "[3]": {"target": "B3", "assay": "ITC"}, "[4]": {"target": "B5", "assay": "SEC-MALS"}, "[5]": {"target": "B1", "assay": "SEC-MALS"}, "[6]": {"target": "B2", "assay": "SEC-MALS"}, "[7]": {"target": "B4", "assay": "SEC-MALS"}, "[8]": {"target": "B2", "assay": "SAXS"}}, "data": [{"binder": "B1", "values": [{"measurement": "stoichiometry N", "setting": "[1]", "result": 2}]}, {"binder": "B2", "values": [{"measurement": "stoichiometry N", "setting": "[1]", "result": 2}, {"measurement": "binding result", "setting": "[2]", "result": "binds"}, {"measurement": "Kd", "setting": "[3]", "result": 5.43, "unit": "nM"}]}, {"binder": "B3", "values": [{"measurement": "stoichiometry N", "setting": "[4]", "result": "1 PTP_(PTPN21) per E7 CR3 chain (2:2)"}, {"measurement": "stoichiometry N", "setting": "[5]", "result": "1 PTP_(PTPN21) per E7 CR3 chain (2:2)"}, {"measurement": "stoichiometry N", "setting": "[6]", "result": "1 PTP_(PTPN21) per E7 CR3 chain (2:2)"}, {"measurement": "stoichiometry N", "setting": "[7]", "result": "1 PTP_(PTPN21) per E7 CR3 chain (2:2)"}, {"measurement": "stoichiometry N", "setting": "[8]", "result": "1 PTP_(PTPN21) per CR3_(18E7) chain (2:2)"}]}, {"binder": "B4", "values": [{"measurement": "stoichiometry N", "setting": "[1]", "result": 2}]}, {"binder": "B5", "values": [{"measurement": "stoichiometry N", "setting": "[1]", "result": 2}]}]}
